Experimental findings from the DeepSol protein solubility set are described below.

This series can be described thus: soluble on expression in E. coli; label from the status in PepcDB or PDB records.
As to “MGHHHHHHSHAQHNYVISLTTEQKRRKHITEEFGKQNIPFEFFDAITPDIIEETAKKFNITLDRSPKAKLSDGEIGCALSHIVLWDLALENNLNYINIFEDDIHLGENAKELLEIDYISDDIHVLKLEANGKMFFKQPKSVKCDRNVYPMTVKQSGCAGYTVTAKGAKYLLELVKNKPLDVAVDSLV”, the “soluble on expression in E. coli” value is reported as “soluble”.
The entry for “MGSDKIHHHHHHMGKVTIEPLSRLEGHGKVSITLDDAGKPTDVKLHITALRGFEQFVVGRPAEEVPRIVPRICGICQTPHHLASVKAVDAAWGAEVPSAAEKLRELMHLGNMMHSHALHFYYLAAPDFVLGPDSDPAARNIIGVIGAAPEVAKKAIAMRRVGQSIVETIGGRAIHPVTGVPGGVSKALSEEKRDELLNEIDEMIAYGQDGIALIKSLNEKYMDLAKTLGVIDTWYLGMVKDGKHNFYGDTLRFMSPDGKQTTDFKPSEYLDNIGEHVVGHNYVKYPYNKKVGYPDGLYRVGPLAMLNVCDSMPTPLAEEARKDFADTFGKPANQSLAYNHARLIELLASCERVKELLEDSEITSTDIKAEVEPKAGNGVGAIYAPRGTLFHNYETDDKGIVVKANMIVASTHNVPTMEKAIQQAAEVVFK” is “not soluble”; for “MGHHHHHHSHGSCEVLRLLDLGASPSYRRWIWQHLELIDGRPLKTHLSEYSPMERFKEFQIKSYPLQDFSSLKLPHLKKAWGLQGTSFSRKIRTSGDTLPKMLGPKIQSRPAQSIKCAMINIKPGELPKEAAVGAYVKVHTVEQGEILGLHQAFLPEGECDTRPLILMSLGNELIRIRKEIFYELIDNDDEMIKKLLKLNIAFPSDEDMCQKFLQQNSWNIFRKDLLQLLVEPCQSQLFTPNRPKKREIYNPKSVVLDLCSINKTTKPRYPIFMAPQKYLPPLRIVQAIKAPRYKIRELLA” it is “not soluble”; for “EFSGSFNRQFKLNKPVIPVNTEYVTRKEFNEYKDSNDQRLTKIENKVDKLEIKVDKLEKKVDKLEVKVDKLVETVNAQGEDLNNFKVEVRGTLQSQGETLQLILQTLQGMSKRLDSVEGRLDSMDGRLDSMETRLDKID” it is “soluble”.
The entry for “MASSFDNQMDQDGMCSVYSAQPSETNCSINEVLAKEIIAVNETPDDQADSSIYPIPKSETNVSASEGFQPCQDINQFNLSVYSAPKSETPVTMNEKFERCKDLMNVLDYSVYSMPPSEANVTMNVASFSEYTALASETNVTMADVLKNVAQDLASEHTAKSAHPTFDTTAYVERLQAELGIPDSKVIGLECSNFSNAKIIDSIECLHQLDKFQPIPVDFDQNPDFGKTAKSVESYLLRSSNASSIHHEI” is “not soluble”; for “GSSKSWANHENKTVNKITVVGGGELGIACTLAISAKGIADRLVLLDLSEGTKGATMDLEIFNLPNVEISKDLSASAHSKVVIFTVNSLGSSQSYLDVVQSNVDMFRALVPALGHYSQHSVLLVASQPVEIMTYVTWKLSTFPANRVIGIGCNLDSQRLQYIITNVLKAQTSGKEVWVIGEQGEDKVLTWSGQEEVVSHTSQVQLSNRAMELLRVKGQRSWSVGLSVADMVDSIVNNKKKVHSVSALAKGYYDINSEVFLSLPCILGTNGVSEVIKTTLKEDTVTEKLQSSASSIHSLQQQLKL” it is “soluble”.
The entry for “MQFNPGFSSLAALLADPGRAQMIWALMDGSARPASELALLAGVSPSSASGHLGRLVEGGVLSLEARGRNRFYRLAGPEVGQAVEALASASLALQPQRRSLPPSHGTPSALREARTCYDHLAGELAVGVFARMLDAGWIEQEGRTLRLSATGEAGLAGLGIDLAEVRRRRRQFACACPDWSERKPHLGGALGAALLEACLRQGWLRPQDGSRALQVSSKGRAGLRGLAERTAG” is “not soluble”.
On to “MSLNILVIGTGAIGSFYGALLAKTGHCVSVVARSDYETVKAKGIRIRSATLGDYTFRPAAVVRSAAELETKPDCTLLCIKVVEGADRVGLLRDAVAPDTGIVLISNGIDIEPEVAAAFPDNEVISGLAFIGVTRTAPGEIWHQAYGRLMLGNYPGGVSERVKTLAAAFEEAGIDGIATENITTARWQKCVWNAAFNPLSVLSGGLDTLDILSTQEGFVRAIMQEIRAVAAANGHPLPEDIVEKNVASTYKMPPYKTSMLVDFEAGQPMETEVILGNAVRAGRRTRVAIPHLESVYALMKLLELRTSKSLWGNEGHHHHHH”, for which the “soluble on expression in E. coli” value is reported as “soluble”.
Turning to “MSEDQMKQQLVIDQKAVKETLQQMLTSDQGKKFWESALKDPKFAESFAKGLQAEHEKMMKALMKDPDYQALMIDILKDPEMEKAMVDVLKSKEFRQHLQKVITETLNSPLYQAKIQDMLMKAAEKVQQGGEKQEEEGGGEGGEGEGEESTGNQQGGGG”, the “soluble on expression in E. coli” value is “not soluble”.
The entry for “MKHLMKMWNPWWIERKVPASKKRISRPETLETILKLLDIREVICITGVRRCGKSTIMYQAIDHLIGKGVEPENILYFNLDEPFEDKSIGLLDRIFGEYIELHVPKGRKYIFLDEIQNVKDWEQWVKKFYDLHGEDIKFVLTGSNSSMLSDQLSILLTGRMITQHVFPLSFKEYLDFESFELKDPDIQRNEILHYFNKYLFKGGFPEVVLENDMDINHLRLTEYFNSILLRDIVVGRNIRESAKLIELANYSLSNVSTLLSYSKISNATGLSVNSLKEYLLFLEQAYLIYQLNFFSYSVKDSISIKMPKKVYCIDNGLRNSAAFTFSADEGRLAENLAFVELKRRKVEFFYWKEKREVDFVIKGIDGALTGINCTCTDHIRQGEINALLELKEQFGEKVSRLILLTKNLEKKENDISYIPLWKWVLGTRLSK” is “not soluble”; for “MAHHHHHHMFFRTCCRLMVRPTALQRCKSVNSVTLVGVVHDIQSGFVYEDAVTQFTLTTTSIDTTHPTQEVVVEKDHHTIRCFGELFSAEVKQKVKEGNVVCVNGRLRLSPQLEPSCNKHFYFPYIQVQPPHGQVAVIHGDRRNTPASVNPTAEEIPAESESGTTSKTS” it is “not soluble”; for “GPLGSMINAKTKVIGLIGHPVEHSFSPIMHNAAFKDKGLNYVYVAFDVLPENLKYVIDGAKALGIVGFNVTIPHKIEIMKYLDEIDKDAQLIGAVNTIKIEDGKAIGYNTDGIGARMALEEEIGRVKDKNIVIYGAGGAARAVAFELAKDNNIIIANRTVEKAEALAKEIAEKLNKKFGEEVKFSGLDVDLDGVDIIINATPIGMYPNIDVEPIVKAEKLREDMVVMDLIYNPLETVLLKEAKKVNAKTINGLGMLIYQGAVAFKIWTGVEPNIEVMKNAIIDKITK” it is “soluble”.
The entry for “MAHHHHHHMKPVYRYAMNHEYNINSICPIAYSDQFATADDATVLLWCTEYPDTSIETHDMRSPYEDGPRETICAVRNFPHEPFLFFVATSGGSVRVVDTRQTLRWGDQAAQAFINPPREEDEPFSNVTNSICDCALSPSGRYIAGRDFMSICLWDIRMAGSGGARNAPATPRRQAPAARGGDGNPECSMVRRWALHPHLRDDLDTIYQSNLLFDKFDVQFLSSRQVCTGGFNNTLYTMDVEGTSADAASDIRTFQLLKTEGISEFRRTTVSAHRRGEDRISTGQGLGSRMTLMSRPYMSMSGACGMMVACGQAVLQLSYNGLSK” is “not soluble”.
On to “MGSDKIHHHHHHMIQTYILKIQSLKWAQREMLKTTLITDTLGHVTSTEPTTTAHVPLPDGSSTPVQIWASDNKDSQLVMLWPGFGMGGYYYRPLAAALNKAGFHVAIGELRGQGQSSAKASRKSQWGYHDLASVDFPLQIAAAKKALDLEEGHPMRFLSHSMGGQISCLFAARPEAEKYNLRAIFGVGAGSPFRPTFSPKMGKRLGLGAVLLGGIGGHIVGFWPGKVLGKDLVGYGRQSGTHMREWRRFHKHNSLDDLTAQDINYVEVMKKVSIPITFSRCPDDEDCPQASIDGLASFVPAAQIKMIEIPEALGHNRWAREPESTVKLFLEQAL”, for which the “soluble on expression in E. coli” value was “not soluble”.
As to “MECAEKVEAEIPGQAGRRAGKPSRTYYLEVYGCSLSEFDALIMASRLEEAGYRRVARPEDADVILVNTCAVRLDTEQRIAERLEKLRLQLPDRKYVVAGCLVKARPGLVARLVPEASLLAPQAVERVLDAVDALESGRRLVVLDGRRDTRSMPQLPITDAVVTVMIQEGCLGDCSFCITKVARRQVRSYSPRVIVERVREAVEKGAREIRLTGTDVAVYGVDLPGKPNLADLVAAILEKVEGDYRIRVGMMTPDQVEPYLDSLLDVYRDERVYKYFHLPVQSGDDEVLKIMKRNYTVSEYKAIHRRIKSRFPDAMIATDIIVGHPGETWEAFWNTVRLVEELRFEKVHLAQYSLRPHTEAASMEQVPDSVKKERSRILGKIVAEIGLEINGSYVGRRVRALVTERSWREGSMTGRLDNYTPIILPYEERAMGRWVYAEVEEATFFDLRSSKFEPAP”, the “soluble on expression in E. coli” value is reported as “soluble”.
To “MATGKGEYHMGNTMTKAIYDKFKVATPYGNKVATGAIPAEAVNIAVKVGGFKVGDQNYPINPKITFTNNTGIDIPGGTEFQFDIPVSAPDNAKDQSGGGLKVIASGHTRANNIGGLDGTMHRVAFSLPAWKSLPAGATYELDMVYYLPISGPANYTVKINNVEYAFSFEQPDLPVADLTALEHHHHHH” belongs “soluble”; to “MSLNAQTLLANVAELVKTKLKPLVDDIDRKGYYPEAFMRELGAIGAVGIEAEGGNGLGLATRIAVLREIGKECGATSFSAWCQAACAWYLHQTPNQAVKDKYLADILQGKVLAGTGMSNTVKHLAGIEKHNLQAECVEGGYTVNGALPWVSNIGEDHIWANTAQIGGGYVMFITGGQREGVSLQNCPEFCALEGTHTFSLNFKDVFIPDEDIIAAPEQFAGYIQSIKAGFILLQIGIGAGVIDGSLGIIRLVNVVNAEVNSYLDDGYDSLKARLDGAWAETERLAGLAWDNTPDNLATLKLREAAAVLALAAAQSAALHSGAKGYLMRSPAQRRVGEAMFVAIVTPAIKHLCKEIAAIEAAKEGHHHHHH”, “not soluble”.
The entry for “MGESFTQAVVEGPQPKPSRFQFVPVPGEFTRGRWKCRDSYHPNAETLEFEKNKSKEEETNPDKISVFFKLRQQQQEPEPEPEPPQPPPQESTIQVTSVKSTRPDTGDPGDSEVVTTDSTESIIITRKNGVTIVRKTSNSLLLPDEKYDQIRQLSIDDFENKEKKQQVPPTPMNTPPASLAVVDTSIQSTTSETTPGHSSSRKPSKEDSSPFDASSATPAPSQLETPQQQKPTTTRHFQVEPVVLSEPSTPAPVAPAPSIETLTSTSPPVTQQLAPSLSEPTFQVIQTEESKNMSMDSVKNVVDAAALSAPAPAPLSQSDRLNHVDEVEGTTPSNVMITVSSAAAALEKKEEAAFAAAGSLDSCGIPISGGGAAAQTSAPHSTPYGTPKDTHIQQQQQPVVFEEILTANGPPPQPSSPLLPALITTTTSAPTIAPASSPIINASGSSIPAASTSGISLFPSGGVTSSLTTPSTTADTHTPIDNKIEQAMELVKTHLTYAVREEVDTLRNTIAELEYQMRESQYECTYYRQNCAPDLIEQASSFVHQQMASHQRPAARRAVSTAGIFDGSSSGGGGGQASSGASASASSAHMRNLQNQIQQMKQITPITTNTCINSTSTSTTAYTSTPTASIPAATAITTTTAPPKPSPTTSESSLITGDLGAPAGAVAQKMTTTNN” is “not soluble”.
For “MGSDKIHHHHHHVSKIGIPRTLAYFIYFPLWKTFFEELGHEVVLSPATSKAILDRGVKEAVNDACIPIKLYHGHAAALAGKVDYIFCPRLVSVRSHGDFGTETFCPKFLGLPDMLRLAMDDLPEIIDVRVDLKQGKDGLWQLSQEIGKGLGNSREEIKRAFNRAREQQRQYNRLLYQEMLPLEALKIIEQKNPIPKKEKSNENYDLQVAVVGYPYLLYDAYINAGLLAILEKEKVKVYTQDIISDRKMNQQAKTLPKSTFWYFSNRVIYGALHFMQRPEIEGVIHLTAFACGPDSMVDRLLEIESRRRGNRPYLSIAVDEHTGEAGVRTRIEAFVDMLRYRRERK”, the “soluble on expression in E. coli” value is “not soluble”.
To “MGSDKIHHHHHHMILRKKKSLNAGPINGTGEGVAHSKRWYVALVRMHHEKKVSEHLDKMGIENFVPVQQELHQWSDRRKLVTSVLLPMMVFVHADPKERMEVLSFSTVSRYMVMRGESSPAVIPDEQMARFRFMLDYSEESISMNSSPLARGEKVRVIKGPLTGLVGELVNVDGRSKIAVRLNMLGCACVDMPVGYVEPIMAAV” belongs “not soluble”.
